US20100004432, “APTAMER AGAINST MIDKINE AND USE THEREOF” (RIBOMIC INC., published 2010)
Residue numbers refer to the chain shown, from its start.

T1: midkine (full-length) (Homo sapiens, UniProt P21741 P21741:23-143)
T1 sequence: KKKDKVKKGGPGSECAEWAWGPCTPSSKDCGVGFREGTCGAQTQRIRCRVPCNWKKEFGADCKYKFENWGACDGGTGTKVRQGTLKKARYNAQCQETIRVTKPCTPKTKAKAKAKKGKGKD

B1: SEQ ID NO:66 (ssRNA)
RNA: GGAAGGAGGAAGUGCACAGGGGUUGGUGUCGGGUGCAC
modifications: g(F)g(F)a(M)a(M)g(F)g(F)a(M)g(F)g(F)a(M)a(M)g(M)u(F)g(M)c(F)a(M)c(F)a(M)gg(M)g(M)g(M)u(F)u(F)g(M)g(M)u(F)g(M)u(F)c(F)g(F)g(F)g(M)u(F)g(M)c(F)a(M)c(F); F=2'-F M=2'-OMe
B2: SEQ ID NO:67 (ssRNA)
RNA: B1 RNA
modifications: gga(M)a(M)gga(M)gga(M)a(M)g(M)u(F)g(M)c(F)a(M)c(F)aggg(M)g(M)u(F)u(F)g(M)g(M)u(F)g(M)u(F)c(F)gggu(F)g(M)c(F)a(M)c(F); F=2'-F M=2'-OMe
B3: SEQ ID NO:68 (ssRNA)
RNA: GGGAAGGAGGAAGUGCACAGGGGUUGGAGUCGGGUGCAC
modifications: 2'-F pyrimidines; 2'-OMe on part of purines (5' strand A, stem purines, loop G, A28)
B4: SEQ ID NO:69 (ssRNA)
RNA: B3 RNA with U25A, A28U
modifications: 2'-F pyrimidines; 2'-OMe on part of purines (5' strand A, stem purines, loop G, A25)
B5: SEQ ID NO:70 (ssRNA)
RNA: B3 RNA with U24A, A28U
modifications: 2'-F pyrimidines; 2'-OMe on part of purines (5' strand A, stem purines, loop G, A24)
B6: SEQ ID NO:51 (ssRNA)
RNA: GGGAAGGAGAGAGGAAGUGCACAGGGGUUGGUGUCGGGUGCACAGUAUAAG
modifications: 2'-F pyrimidines

target: T1, midkine (full-length); test: cell_activity; 500 nM RNA; conditions: tags: expressed in yeast
Method: 30 μL of 1.5 μM midkine was applied to the outer surface of the membrane of Chemotaxicell (membrane pore diameter 8 μm, manufactured by Kurabo) to immobilize the midkine to the outer surface of the membrane. The midkine-immobilized Chemotaxicell was placed on a 24-well culture plate containing 500 μL of a medium (supplemented with 0.3% bovine serum albumin, Dulbecco's Modified Eagle's medium) supplemented with each RNA aptamer added thereto at 100 nM. 200 μL of UMR106 cells were placed in the inner layer of the Chemotaxicell chamber at a density of 1×10⁶ cells/mL, and cultured at 37° C. for 4 hours. The cells remaining in the inner layer of the Chemotaxicell chamber were removed, and the cells that had infiltrated and adhered to the midkine-applied surface were fixed with methanol. The Chemotaxicell chamber was immersed in a 1% aqueous solution of Crystal Violet for 30 minutes to stain the cells. After the Chemotaxicell chamber was washed with distilled water and dried, the pigment was extracted with a mixed solution of 200 μL of 1% SDS and 1% triton X100. 150 μL of the extract was transferred to a 96-well microplate, and its absorbance at 590 nm was determined.
The aptamer shown by SEQ ID NO:5 is 77 nucleotides long, having the 2′-position of the ribose of the pyrimidine nucleotide fluoro-substituted. To enable the chemical synthesis, to reduce the toxicity, and to improve the stability in the blood, miniaturization and stabilization of this aptamer were performed. The operations of miniaturization and stabilization were performed on the basis of the secondary structure estimated by the MFOLD program, and the activity was evaluated by a cell migration inhibition experiment. The RNA concentration in the cell migration inhibition experiment was 100 nM or 500 nM. Since some errors occur in experimental results depending on cell condition, a previously assayed sample was included as a positive control in each measurement.

Binder | activity
GGGAGAGGAGAAGAGGAAGUGCACAGGGGUUGGUGUCGGGUGCAC (ssRNA, 2'-F pyrimidines; 5' single strand (nt 1-18) all G 2'-F and all A 2'-OMe) [SEQ ID NO:54] | 100 % of SEQ 40 inhibition
GGGAGAGGAGGAGGAAGUGCACAGGGGUUGGUGUCGGGUGCAC (ssRNA, 2'-F pyrimidines) [SEQ ID NO:55] | 100 % of SEQ 40 inhibition
GGGAGAGGAGAAGGAAGUGCACAGGGGUUGGUGUCGGGUGCAC (ssRNA, 2'-F pyrimidines) [SEQ ID NO:56] | 100 % of SEQ 40 inhibition
GGGAGAGGAGAAGAAAGUGCACAGGGGUUGGUGUCGGGUGCAC (ssRNA, 2'-F pyrimidines) [SEQ ID NO:57] | 100 % of SEQ 40 inhibition
GGGAGAGGAGAAGAGGGUGCACAGGGGUUGGUGUCGGGUGCAC (ssRNA, 2'-F pyrimidines) [SEQ ID NO:58] | 100 % of SEQ 40 inhibition
GGGUGCACAGGGGUUGGUGUCGGGUGCAC (ssRNA, 2'-F pyrimidines) [SEQ ID NO:59] | 53 % of SEQ 40 inhibition
GGGAAGGAGUGCACAGGGGUUGGUGUCGGGUGCAC (ssRNA, 2'-F pyrimidines) [SEQ ID NO:60] | 70 % of SEQ 40 inhibition
GGGAAGGAGGAAGUGCACAGGGGUUGGUGUCGGGUGCAC (ssRNA, 2'-F pyrimidines) [SEQ ID NO:61] | 100 % of SEQ 40 inhibition
GGGAGAGGAGAAGUGCACAGGGGUUGGUGUCGGGUGCAC (ssRNA, 2'-F pyrimidines) [SEQ ID NO:62] | 44 % of SEQ 40 inhibition
GGGAGAGGAGAAGAGGAAGUGCACCCGGGUUGGUGUCGGGUGCAC (ssRNA, 2'-F pyrimidines) [SEQ ID NO:63] | 97 % of SEQ 40 inhibition
B1 | 51 % of SEQ 40 inhibition
B2 | 110 % of SEQ 40 inhibition
B3 | 72 % of SEQ 40 inhibition
B4 | 60 % of SEQ 40 inhibition
B5 | 110 % of SEQ 40 inhibition
GGGAGAGGAGAAGAGGAAGUUGCACAGGGGUUGGUGUCGGGUGCAAC (ssRNA, 2'-F pyrimidines) [SEQ ID NO:44] | 100 % of SEQ 40 inhibition
GGGAGAGGAGAAGAGGAAGUGCACAGGGGUUGGUGUCGGGUGCAC (ssRNA, 2'-F pyrimidines) [SEQ ID NO:45] | 100 % of SEQ 40 inhibition
GGGAGAGGAGAAGAGGAAGUGCGCGCAGGGGUUGGUGUCGGGCGCGUAC (ssRNA, 2'-F pyrimidines) [SEQ ID NO:46] | 92 % of SEQ 40 inhibition
GGGAGAGGAGAAGAGGAAGUGUGCACAGGGGUGGUGUCGGGUGCAUAC (ssRNA, 2'-F pyrimidines) [SEQ ID NO:47] | 84 % of SEQ 40 inhibition
GGGAGAGGAGAAGAGGAAGUGUGCACAGGGGUUGUGUCGGGUGCAUAC (ssRNA, 2'-F pyrimidines) [SEQ ID NO:48] | 60 % of SEQ 40 inhibition
GGGAGAGGAGAAGAGGAAGUGUGCACAGGGGUUGGGUCGGGUGCAUAC (ssRNA, 2'-F pyrimidines) [SEQ ID NO:49] | 69 % of SEQ 40 inhibition
GGGAAGGAAAGAGGAAGUGCACAGGGGUUGGUGUCGGGUGCAC (ssRNA, 2'-F pyrimidines) [SEQ ID NO:50] | 91 % of SEQ 40 inhibition
B6 | 100 % of SEQ 40 inhibition
